1 substance from patent US20220233650A1 can be followed below.

The experiment addresses recombinant Factor VIII Fc fusion protein (rFVIIIFc) (human) [IgG part: P0DOX5]. Kind of experiment: cell-based or functional assay.

Consider “von Willebrand Factor (VWF) (from UniProt P04275 764-2813)”, for which the percent of cells characterized as osteoclasts at day 7 after rFVIIIFc together with VWF (14.2% with rFVIIIFc alone) turned out to be 45.7%.
